Data taken from IntAct's records for PubMed 35512704.

B1: Speckle-type POZ protein (Homo sapiens), O43791 (parent)
chain: MSRVPSPPPPAEMSSGPVAESWCYTQIKVVKFSYMWTINNFSFCREEMGEVIKSSTFSSGANDKLKWCLRVNPKGLDEESKDYLSLYLLLVSCPKSEVRAKFKFSILNAKGEETKAMESQRAYRFVQGKDWGFKKFIRRDFLLDEANGLLPDDKLTLFCEVSVVQDSVNISGQNTMNMVKVPECRLADELGGLWENSRFTDCCLCVAGQEFQAHKAILAARSPVFSAMFEHEMEESKKNRVEINDVEPEVFKEMMCFIYTGKAPNLDKMADDLLAAADKYALERLKVMCEDALCSNLSVENAAEILILADLHSADQLKTQAVDFINYHASDVLETSGWKSMVVSHPHLVAEAYRSLASAQCPFLGPPRKRLKQS
partner: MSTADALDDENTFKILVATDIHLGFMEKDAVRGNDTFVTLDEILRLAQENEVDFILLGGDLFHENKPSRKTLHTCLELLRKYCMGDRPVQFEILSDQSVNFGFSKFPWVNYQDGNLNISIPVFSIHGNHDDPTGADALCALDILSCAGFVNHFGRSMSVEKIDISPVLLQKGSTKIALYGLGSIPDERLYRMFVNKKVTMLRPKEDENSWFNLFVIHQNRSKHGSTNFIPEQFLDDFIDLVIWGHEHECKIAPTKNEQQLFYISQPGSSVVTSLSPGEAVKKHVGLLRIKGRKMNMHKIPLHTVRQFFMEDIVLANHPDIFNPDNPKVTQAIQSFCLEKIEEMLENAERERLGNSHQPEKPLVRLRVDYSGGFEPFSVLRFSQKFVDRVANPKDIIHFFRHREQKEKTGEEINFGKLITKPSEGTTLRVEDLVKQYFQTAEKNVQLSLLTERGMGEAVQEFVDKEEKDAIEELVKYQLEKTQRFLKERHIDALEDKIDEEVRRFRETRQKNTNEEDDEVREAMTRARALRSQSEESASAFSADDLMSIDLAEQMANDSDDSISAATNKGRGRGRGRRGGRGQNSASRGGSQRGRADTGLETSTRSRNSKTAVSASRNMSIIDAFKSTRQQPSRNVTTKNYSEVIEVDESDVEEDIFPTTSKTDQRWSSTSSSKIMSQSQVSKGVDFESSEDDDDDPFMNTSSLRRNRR
B2: Speckle-type POZ protein (Homo sapiens), O43791 (parent)
chain: B1 chain
partner: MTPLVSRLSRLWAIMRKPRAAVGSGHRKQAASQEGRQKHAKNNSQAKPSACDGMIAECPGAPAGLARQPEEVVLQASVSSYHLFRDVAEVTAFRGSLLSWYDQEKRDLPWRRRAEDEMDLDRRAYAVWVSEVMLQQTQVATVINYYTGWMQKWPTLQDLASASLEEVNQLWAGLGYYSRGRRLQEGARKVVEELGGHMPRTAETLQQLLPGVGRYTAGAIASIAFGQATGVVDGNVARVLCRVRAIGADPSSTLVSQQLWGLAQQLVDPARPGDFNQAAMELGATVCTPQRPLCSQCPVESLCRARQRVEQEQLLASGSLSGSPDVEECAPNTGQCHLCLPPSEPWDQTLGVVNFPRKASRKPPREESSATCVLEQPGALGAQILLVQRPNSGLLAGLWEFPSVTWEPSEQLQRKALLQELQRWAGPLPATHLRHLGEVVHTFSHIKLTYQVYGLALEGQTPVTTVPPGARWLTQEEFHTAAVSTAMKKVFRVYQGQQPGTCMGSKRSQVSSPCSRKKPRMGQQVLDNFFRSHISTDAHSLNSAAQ
B3: Speckle-type POZ protein (Homo sapiens), O43791 (parent)
chain: B1 chain
partner: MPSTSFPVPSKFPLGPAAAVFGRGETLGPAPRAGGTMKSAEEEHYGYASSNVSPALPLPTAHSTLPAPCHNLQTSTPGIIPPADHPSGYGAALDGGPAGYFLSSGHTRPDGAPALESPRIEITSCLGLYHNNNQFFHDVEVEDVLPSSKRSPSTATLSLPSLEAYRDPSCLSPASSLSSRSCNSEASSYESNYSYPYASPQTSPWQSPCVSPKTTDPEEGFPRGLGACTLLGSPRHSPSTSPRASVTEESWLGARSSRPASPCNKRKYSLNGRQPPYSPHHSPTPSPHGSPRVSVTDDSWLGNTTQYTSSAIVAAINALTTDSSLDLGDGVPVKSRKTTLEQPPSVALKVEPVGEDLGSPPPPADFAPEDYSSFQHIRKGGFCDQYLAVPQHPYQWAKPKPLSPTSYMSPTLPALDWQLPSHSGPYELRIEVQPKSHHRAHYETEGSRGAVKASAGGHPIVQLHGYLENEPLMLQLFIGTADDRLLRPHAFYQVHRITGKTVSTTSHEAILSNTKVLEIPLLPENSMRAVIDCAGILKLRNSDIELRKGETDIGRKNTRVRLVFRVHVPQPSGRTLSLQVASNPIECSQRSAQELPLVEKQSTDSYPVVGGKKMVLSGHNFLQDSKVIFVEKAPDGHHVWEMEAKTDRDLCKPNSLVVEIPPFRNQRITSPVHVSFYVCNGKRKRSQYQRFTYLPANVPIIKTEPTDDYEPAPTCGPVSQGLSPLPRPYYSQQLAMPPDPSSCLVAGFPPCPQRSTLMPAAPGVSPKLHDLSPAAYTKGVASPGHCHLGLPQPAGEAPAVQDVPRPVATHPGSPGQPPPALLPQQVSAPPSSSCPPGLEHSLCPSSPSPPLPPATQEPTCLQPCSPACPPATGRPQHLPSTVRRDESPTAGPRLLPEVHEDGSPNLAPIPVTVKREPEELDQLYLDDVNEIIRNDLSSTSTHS
B4: Speckle-type POZ protein (Homo sapiens), O43791 (parent)
chain: B1 chain
partner: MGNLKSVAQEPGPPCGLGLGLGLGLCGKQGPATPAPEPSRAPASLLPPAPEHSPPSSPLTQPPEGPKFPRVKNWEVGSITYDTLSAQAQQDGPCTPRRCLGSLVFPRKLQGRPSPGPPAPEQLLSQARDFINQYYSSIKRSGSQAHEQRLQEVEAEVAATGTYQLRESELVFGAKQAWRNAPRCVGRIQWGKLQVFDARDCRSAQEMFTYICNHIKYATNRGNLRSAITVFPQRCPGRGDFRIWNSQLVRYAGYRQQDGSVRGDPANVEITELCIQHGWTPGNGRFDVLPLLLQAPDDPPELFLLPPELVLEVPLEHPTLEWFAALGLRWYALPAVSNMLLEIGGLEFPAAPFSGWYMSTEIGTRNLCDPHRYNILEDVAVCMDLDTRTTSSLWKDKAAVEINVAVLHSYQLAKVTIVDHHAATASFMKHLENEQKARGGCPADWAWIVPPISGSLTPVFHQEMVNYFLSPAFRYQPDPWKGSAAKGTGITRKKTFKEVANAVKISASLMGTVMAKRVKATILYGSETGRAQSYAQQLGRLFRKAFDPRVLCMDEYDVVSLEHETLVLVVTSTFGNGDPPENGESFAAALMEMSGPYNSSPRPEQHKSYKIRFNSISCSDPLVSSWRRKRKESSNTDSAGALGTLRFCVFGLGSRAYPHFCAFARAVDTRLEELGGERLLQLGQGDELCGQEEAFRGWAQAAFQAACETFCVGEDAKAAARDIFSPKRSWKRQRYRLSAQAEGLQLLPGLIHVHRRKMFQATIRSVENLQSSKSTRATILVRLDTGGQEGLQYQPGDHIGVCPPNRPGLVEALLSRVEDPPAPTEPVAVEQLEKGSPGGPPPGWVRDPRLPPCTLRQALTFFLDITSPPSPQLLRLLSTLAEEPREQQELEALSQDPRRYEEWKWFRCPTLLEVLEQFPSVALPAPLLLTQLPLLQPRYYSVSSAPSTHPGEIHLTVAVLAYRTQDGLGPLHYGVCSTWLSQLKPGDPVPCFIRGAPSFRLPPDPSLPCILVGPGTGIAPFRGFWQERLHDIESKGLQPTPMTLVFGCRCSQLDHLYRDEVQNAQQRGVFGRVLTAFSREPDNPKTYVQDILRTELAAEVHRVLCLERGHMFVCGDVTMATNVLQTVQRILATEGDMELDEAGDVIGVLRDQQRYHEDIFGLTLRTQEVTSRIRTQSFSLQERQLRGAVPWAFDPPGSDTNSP

Variants of: B1
Conditions: with mre11_human MRE11, P49959

| Variant | effect of a mutation on the interaction |
| --- | --- |
| Y87C | with no effect |

Variants of: B1
Conditions: with mre11_human MRE11, P49959
Remark: another data set of the same source

| Variant | effect of a mutation on the interaction |
| --- | --- |
| F133V | with no effect |

Variants of: B2
Conditions: with mutyh_human MUTYH

| Variant | effect of a mutation on the interaction |
| --- | --- |
| F102C | with no effect |

Variants of: B2
Conditions: with mutyh_human MUTYH
Remark: another data set of the same source

| Variant | effect of a mutation on the interaction |
| --- | --- |
| F133L | with no effect |

Variants of: B2
Conditions: with mutyh_human MUTYH
Remark: another data set of the same source

| Variant | effect of a mutation on the interaction |
| --- | --- |
| Y87C | with no effect |

Variants of: B2
Conditions: with mutyh_human MUTYH
Remark: another data set of the same source

| Variant | effect of a mutation on the interaction |
| --- | --- |
| F133V | with no effect |

Variants of: B3
Conditions: with nfac1_human NFATC1, O95644

| Variant | effect of a mutation on the interaction |
| --- | --- |
| F102C | with no effect |

Variants of: B3
Conditions: with nfac1_human NFATC1, O95644
Remark: another data set of the same source

| Variant | effect of a mutation on the interaction |
| --- | --- |
| F133L | with no effect |

Variants of: B3
Conditions: with nfac1_human NFATC1, O95644
Remark: another data set of the same source

| Variant | effect of a mutation on the interaction |
| --- | --- |
| Y87C | with no effect |

Variants of: B3
Conditions: with nfac1_human NFATC1, O95644
Remark: another data set of the same source

| Variant | effect of a mutation on the interaction |
| --- | --- |
| F133V | with no effect |

Variants of: B4
Conditions: with nos3_human NOS3, P29474

| Variant | effect of a mutation on the interaction |
| --- | --- |
| F102C | with no effect |

Variants of: B4
Conditions: with nos3_human NOS3, P29474
Remark: another data set of the same source

| Variant | effect of a mutation on the interaction |
| --- | --- |
| F133L | with no effect |
